The assay has as its target T1, FLAG-ubiquitin, recombinant (UniProt P0CG47 1-76).
T1 construct: ubiquitin, the cut product of a ubiquitin precursor; source: bought: Boston Biochem
As to the kind of experiment: SPR; Biacore 3000, 25°C; FLAG-ubiquitin immobilised on CM-5 chip by amine cross-linking; increasing amounts of GST-ING1 injected; blank reference subtracted; three experiments; steady-state affinity and kinetic data. To be noted: both partners purified. (In SPR one partner is held on a chip, and binding of the other changes the refractive index at the surface.)

Kd data for one molecule are collected here from article PMC3120833, “The p53 Tumor Suppressor Is Stabilized by Inhibitor of Growth 1 (ING1) by Blocking Polyubiquitination” (PLoS ONE, 2011).

B1: GST-ING1b, full length, recombinant (natural protein, human, UniProt Q9UK53-2 1-279, looked up)
chain: MLSPANGEQLHLVNYVEDYLDSIESLPFDLQRNVSLMREIDAKYQEILKELDECYERFSRETDGAQKRRMLHCVQRALIRSQELGDEKIQIVSQMVELVENRTRQVDSHVELFEAQQELGDTAGNSGKAGADRPKGEAAAQADKPNSKRSRRQRNNENRENASSNHDHDDGASGTPKEKKAKTSKKKKRSKAKAEREASPADLPIDPNEPTYCLCNQVSYGEMIGCDNDECPIEWFHFSCVGLNHKPKGKWYCPKCRGENEKTMDKALEKSKKERAYNR
notes: ING1 isoform p33ING1b, full length
As a reminder, the Kd is the free concentration of one partner at which half of the binding sites on the other are occupied at equilibrium, for simple one-to-one binding. For the molecule B1, the Kd is around 100 nM.
